For the experiment, the target named is VV B5单体蛋白 (Wyeth牛痘毒株的B5序列, C-末端AVI标签和HIS6标签) (牛痘病毒 Wyeth毒株).

B1: A048亲本抗B5 hIgG1 (antibody, V domains shown)
VH: QEQLEESGGGLVKPEGSLTLTCTASGFSFSSSYYMCWVRQAPGRGLEWIACIYTSSGSAYYANWAKGRFTISRTSSTTVTLQMTRLTAADTATYFCVRNAVGSSYYLYLWGPGTLVTVSS
VL: AQVLTQTPSPVSAAVGGTVTISCQASQSVAGNNYLSWYQQKPGQPPNLLIYSVSTLASGVPSRFKGSGSGTQFTLTISDLECDDAATYYCQGYYNDGIWAFGGGTEVVVK
The molecule B1 gave a Kd of 9.5 nM.

The term Kd denotes the free concentration of one partner at which half of the binding sites on the other are occupied at equilibrium, for simple one-to-one binding. Read a low Kd as tighter binding.
